Patent publication US20150184142

Tests used:
Compound 7 = test system: T1, Compound 7
T1 sequence: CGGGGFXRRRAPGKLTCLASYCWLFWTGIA

With thrombin the “cleavage by 1.4 nM thrombin at 37 C, HPLC” value (Compound 1) was 30% of Compound 1 was quickly cleaved and released, the “cleavage rate with 14 nM thrombin, HPLC, against Compound 2” value (Compound 1) was “at least 10-fold increase in cleavage rate compared to that of Compound 2” and the “cleavage by 1.4 nM thrombin in PBS at 37 C, HPLC” value (Compound 7) was “Approximately 90% of Compound 7 was cleaved after 30 minutes”. The “cleavage by 1.4 nM thrombin at 37 C, HPLC” value (Compound 5) was “Compound 1 was a better substrate for thrombin than Compounds 4 and 5” and the “cleavage by 1.4 nM thrombin at 37 C, HPLC” value (Compound 4) was “Compound 1 was a better substrate for thrombin than Compounds 4 and 5”.
